Substitutions are numbered along the chain they refer to.
Tests used:
[1] = target: SARS-CoV-2 RBD-Fc fusion protein (SARS-CoV-2, UniProt P0DTC2); assay: ELISA; conditions: both partners purified
[2] = target: SARS-CoV-2 RBD without the Fc fragment (SARS-CoV-2, UniProt P0DTC2); assay: ELISA; conditions: both partners purified

B1: nCoVFab1 (Fab, V domains shown)
VH: QVQLVESGGGLVQPGGSLRLSCAASGFTVSSNYMSWVRQAPGKGLEWVSVIYSGGSTYYADSVKGRFTISRDNSKNTLYLQMNSLRAEDTAVYYCARGDGSDDYYYGMDVWGQGTTVTVSS
VL: QSVVTQPPSVSGAQGQRVFISCTGNGANIGMGYDVHWYQQLPGRAPKLLIFGNTNRPSGVPDRFSASRSGTSASLAITGLQTADEADYYCQSYDGNLRASVFGGGTKLTVL
notes: source: E. coli strain HB2151, purified (nickel-nitrilotriacetic acid resin)
Q: Which EC50 [1] does the source give for B1 here?
A: ~16 nM

B2: nCoVmab2 (antibody, V domains shown)
VH: B1 VH with Q1E, E6Q, L11V, G16R
VL: QAVLTQPSSVSGAPGQRVTISCTGSSSNVGAGYDVHWYQQLPGTAPKLLIYGNSNRPSGVPDRFSGSKSGTSASLAITGLQAEDEADYYCQSYDSSLSGSVFGGGTKLTVL
notes: also called nCoVFab2 in IgG1 format; source: 293F cells, purified (Protein A resin)
Q: How did the EC50 [2] turn out when B2 was run?
A: 0.84 nM

B3: nCoVmab1_(gHmL) (antibody, V domains shown)
VH: B1 VH with Q1E, D102Y, D103Y
VL: B1 VL
Q: Does B3 bind [2]?
A: no binding

B4: nCoVmab1gFR (antibody, V domains shown)
VH: B1 VH with Q1E
VL: B1 VL with Q14P, F19T, N25S, R44T, F51Y, A66G, R68K, T82A, A83E
Q: Does B4 bind [2]?
A: binds

B5: nCoVmab1 (antibody, V domains shown)
VH: B1 VH
VL: B1 VL
notes: also called nCoVFab1 in IgG1 format; source: 293F cells, purified (Protein A resin)
Q: B5 was tested. Which EC50 [2] did it give?
A: 0.56 nM

B6: nCoVFab2 (Fab, V domains shown)
VH: B1 VH with Q1E, E6Q, L11V, G16R
VL: B2 VL
notes: as for B1
Q: B6 was tested. Which EC50 [1] did it give?
A: ~63 nM

B7: nCoVmab1_(gHgL) (antibody, V domains shown)
VH: B1 VH with Q1E, D102Y, D103Y
VL: B2 VL with A2S, L4V, S8P, V29I, S100W
Q: Does B7 bind [2]?
A: no binding
